Where two headings read alike, the source gives them in different places.
B1: sc 264 (antibody, V domains shown)
VH: QVQLQESGPGLVKPSQTLSLTCTVSGGSISSGGYYWSWIRQHPGKGLEWIGYIYYSGRTYNNPSLKSRVTISVDTSKNQFSLKLSSVTAADTAVYYCARVATGRGDYHFYAMDVWGQGTTVTVSS
VL: SYELTQPSSVSVSPGQTARITCSGDVLAKKSARWFHQKPGQAPVLVIYKDSERPSGIPERFSGSSSGTTVTLTISGAQVEDEAAYYCYSAADNNLVFGGGTKLTVL
notes: lambda light chain
B2: sc 298 (antibody, V domains shown)
VH: QVQLVESGGGVVQPGRSLRLSCAASGFTFSSYGMHWVRQAPGKGLEWVAVIWYGGSNKYYADSVKGRFTISRDNSKNTLYLQMNSLRAEDTAVYYCARDLAARRGDYYYYGMDVWGQGTTVTVSS
VL: SSELTQDPVVSVALGQTVRITCQGDSLRSYYLSWYQQKPGQAPVLVIYGKNNRPSGIPDRFSGSNSGNTASLTITGAQAEDEADYYCNSRDSSGNHLFGGGTKLTVL
notes: lambda light chain

Assays:
[1] = biological target: T1, α5β1 integrin on K562 cells (UniProt P08648 42-1049; P05556 21-798); experiment: cell-based or functional assay
[2] = biological target: T2, α4β1 integrin on J6.77 cells (UniProt P13612 34-1032; P05556 21-798); experiment: cell-based or functional assay
[3] = biological target: T3, cynomolgus αVβ6 on cells (cynomolgus); experiment: FACS, supernatant, HEK-293 transfected with cynomolgus αV and β6
T3 construct: whole, on cells; also called macaque αVβ6; Mac AVB6

[4] = biological target: T4, cynomolgus αV on transfected HEK-293 cells (cynomolgus); experiment: FACS, purified mAb, transfected HEK-293 (parental: 74)
T4 construct: whole, on cells; Transfected alone into human HEK-293 cells; also called Cynomolgus alphaV

[5] = biological target: T3, cynomolgus αVβ6 on cells; experiment: as above
[6] = biological target: T5, mouse αV on transfected HEK-293 cells (mouse, UniProt P43406 31-1044); experiment: as above
T5 construct: whole, on cells; Transfected alone into human HEK-293 cells; also called Mouse alpha V

[7] = biological target: T1, α5β1 integrin on K562 cells; experiment: cell-based or functional assay; remark: listed apart in the source
[8] = biological target: human αV on parental A375M cells (αVβ3 and αVβ5 integrins) (human, UniProt P06756 31-1048); experiment: cell-based or functional assay
[9] = biological target: T2, α4β1 integrin on J6.77 cells; experiment: cell-based or functional assay; remark: listed apart in the source
[10] = biological target: T6, human αVβ6 integrin on cells (human, UniProt P06756 31-1048; P18564 22-788); experiment: cell-based or functional assay
[11] = biological target: T5, mouse αV on transfected HEK-293 cells; experiment: FACS, purified mAb, transfected HEK-293 (parental: 49)
[12] = biological target: T6, human αVβ6 integrin on cells; experiment: cell-based or functional assay; remark: listed apart in the source
[13] = biological target: T6, human αVβ6 integrin on cells; experiment: FMAT, supernatant, HEK 293 cells stably overexpressing αVβ6
[14] = biological target: T6, human αVβ6 integrin on cells; experiment: cell-based or functional assay; remark: listed apart in the source

T6 sequence (P06756 31-1048, chain 1 of 2): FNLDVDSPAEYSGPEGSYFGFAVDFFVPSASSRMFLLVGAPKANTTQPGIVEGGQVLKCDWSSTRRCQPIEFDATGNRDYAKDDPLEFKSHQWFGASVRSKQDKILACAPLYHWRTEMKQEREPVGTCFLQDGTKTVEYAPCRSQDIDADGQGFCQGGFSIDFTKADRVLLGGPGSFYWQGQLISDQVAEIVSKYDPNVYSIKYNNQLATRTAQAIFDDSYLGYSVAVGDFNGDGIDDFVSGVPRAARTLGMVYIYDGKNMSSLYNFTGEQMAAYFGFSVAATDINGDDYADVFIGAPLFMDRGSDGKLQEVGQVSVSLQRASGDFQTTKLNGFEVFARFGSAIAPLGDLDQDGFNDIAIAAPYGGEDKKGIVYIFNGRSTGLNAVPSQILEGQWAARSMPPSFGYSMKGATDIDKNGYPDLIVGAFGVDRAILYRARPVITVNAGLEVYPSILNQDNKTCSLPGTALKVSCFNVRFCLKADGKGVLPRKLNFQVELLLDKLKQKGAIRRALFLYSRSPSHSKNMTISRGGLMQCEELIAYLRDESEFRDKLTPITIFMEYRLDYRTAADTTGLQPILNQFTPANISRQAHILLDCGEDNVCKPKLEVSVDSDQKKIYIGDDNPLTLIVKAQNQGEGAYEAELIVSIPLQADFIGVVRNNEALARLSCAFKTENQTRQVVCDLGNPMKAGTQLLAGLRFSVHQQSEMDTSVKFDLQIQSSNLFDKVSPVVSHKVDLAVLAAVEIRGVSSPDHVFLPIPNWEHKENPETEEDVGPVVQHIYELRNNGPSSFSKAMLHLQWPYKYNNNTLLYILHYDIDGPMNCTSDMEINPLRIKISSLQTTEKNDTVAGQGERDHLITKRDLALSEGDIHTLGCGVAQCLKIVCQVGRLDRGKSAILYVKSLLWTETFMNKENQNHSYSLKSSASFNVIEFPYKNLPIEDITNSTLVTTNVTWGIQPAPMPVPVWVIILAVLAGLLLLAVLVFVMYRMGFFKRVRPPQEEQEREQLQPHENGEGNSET
T6 sequence (P18564 22-788, chain 2 of 2): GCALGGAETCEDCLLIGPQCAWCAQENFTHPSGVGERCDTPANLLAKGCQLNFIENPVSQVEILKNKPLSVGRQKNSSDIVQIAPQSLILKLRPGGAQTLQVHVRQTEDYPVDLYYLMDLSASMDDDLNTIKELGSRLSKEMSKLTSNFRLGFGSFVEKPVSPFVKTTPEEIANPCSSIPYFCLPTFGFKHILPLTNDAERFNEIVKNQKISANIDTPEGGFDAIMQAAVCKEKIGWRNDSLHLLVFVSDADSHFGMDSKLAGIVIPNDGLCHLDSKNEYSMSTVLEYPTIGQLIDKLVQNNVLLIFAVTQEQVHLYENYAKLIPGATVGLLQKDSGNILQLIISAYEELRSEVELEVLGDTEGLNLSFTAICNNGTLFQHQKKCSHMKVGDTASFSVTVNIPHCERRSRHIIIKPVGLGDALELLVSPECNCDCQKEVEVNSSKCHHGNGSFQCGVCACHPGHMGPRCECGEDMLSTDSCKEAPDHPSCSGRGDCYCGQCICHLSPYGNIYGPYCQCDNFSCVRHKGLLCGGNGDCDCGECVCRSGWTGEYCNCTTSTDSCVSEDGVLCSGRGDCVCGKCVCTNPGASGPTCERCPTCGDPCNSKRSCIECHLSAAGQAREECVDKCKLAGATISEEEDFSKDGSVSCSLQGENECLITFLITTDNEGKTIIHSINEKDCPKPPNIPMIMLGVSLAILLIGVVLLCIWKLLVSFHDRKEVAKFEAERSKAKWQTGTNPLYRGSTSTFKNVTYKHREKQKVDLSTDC
T1 sequence (P08648 42-1049, chain 1 of 2): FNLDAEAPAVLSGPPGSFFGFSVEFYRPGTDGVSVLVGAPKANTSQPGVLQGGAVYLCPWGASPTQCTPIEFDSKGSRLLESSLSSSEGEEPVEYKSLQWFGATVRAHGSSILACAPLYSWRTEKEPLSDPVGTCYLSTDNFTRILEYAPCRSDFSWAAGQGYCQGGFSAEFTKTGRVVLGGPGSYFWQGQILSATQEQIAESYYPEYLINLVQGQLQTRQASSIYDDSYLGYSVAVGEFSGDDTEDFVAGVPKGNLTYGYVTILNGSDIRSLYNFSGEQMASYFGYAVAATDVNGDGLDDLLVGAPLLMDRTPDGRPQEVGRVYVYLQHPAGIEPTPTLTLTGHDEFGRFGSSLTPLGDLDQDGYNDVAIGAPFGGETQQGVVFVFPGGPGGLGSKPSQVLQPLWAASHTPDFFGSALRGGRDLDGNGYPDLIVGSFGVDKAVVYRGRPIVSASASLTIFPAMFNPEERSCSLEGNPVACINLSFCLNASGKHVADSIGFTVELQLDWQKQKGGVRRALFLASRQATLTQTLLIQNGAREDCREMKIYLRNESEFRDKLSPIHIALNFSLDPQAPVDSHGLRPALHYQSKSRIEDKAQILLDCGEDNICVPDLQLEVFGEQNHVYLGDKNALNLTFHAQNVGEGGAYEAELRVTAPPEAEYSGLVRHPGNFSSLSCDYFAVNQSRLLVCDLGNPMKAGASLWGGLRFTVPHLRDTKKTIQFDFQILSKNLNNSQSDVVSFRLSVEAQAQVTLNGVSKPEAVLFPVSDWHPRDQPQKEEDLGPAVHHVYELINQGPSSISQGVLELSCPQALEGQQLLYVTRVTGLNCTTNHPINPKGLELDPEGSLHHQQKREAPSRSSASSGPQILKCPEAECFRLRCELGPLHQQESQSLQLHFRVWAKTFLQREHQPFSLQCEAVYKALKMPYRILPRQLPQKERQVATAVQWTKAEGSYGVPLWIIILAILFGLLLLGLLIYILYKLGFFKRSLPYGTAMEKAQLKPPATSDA
T1 sequence (P05556 21-798, chain 2 of 2): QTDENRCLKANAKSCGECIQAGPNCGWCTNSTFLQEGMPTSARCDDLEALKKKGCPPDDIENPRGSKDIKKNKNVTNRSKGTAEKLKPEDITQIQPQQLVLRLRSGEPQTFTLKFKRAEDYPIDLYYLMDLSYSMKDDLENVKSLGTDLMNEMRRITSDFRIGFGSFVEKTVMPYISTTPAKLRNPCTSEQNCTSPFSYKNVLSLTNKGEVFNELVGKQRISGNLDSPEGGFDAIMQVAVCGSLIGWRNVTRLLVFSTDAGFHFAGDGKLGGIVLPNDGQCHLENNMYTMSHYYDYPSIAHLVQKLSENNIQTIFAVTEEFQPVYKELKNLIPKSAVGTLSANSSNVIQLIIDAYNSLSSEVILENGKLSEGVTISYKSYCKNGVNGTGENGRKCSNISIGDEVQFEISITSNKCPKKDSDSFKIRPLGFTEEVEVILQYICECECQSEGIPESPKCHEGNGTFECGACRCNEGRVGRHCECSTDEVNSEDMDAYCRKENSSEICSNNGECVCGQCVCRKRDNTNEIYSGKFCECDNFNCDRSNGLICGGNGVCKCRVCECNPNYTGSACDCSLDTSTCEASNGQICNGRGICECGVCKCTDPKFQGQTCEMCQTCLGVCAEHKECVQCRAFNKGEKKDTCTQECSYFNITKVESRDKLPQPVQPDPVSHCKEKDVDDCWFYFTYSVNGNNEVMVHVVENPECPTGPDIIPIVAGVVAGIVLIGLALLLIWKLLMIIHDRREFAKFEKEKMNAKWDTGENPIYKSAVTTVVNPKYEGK
T5 sequence (P43406 31-1044): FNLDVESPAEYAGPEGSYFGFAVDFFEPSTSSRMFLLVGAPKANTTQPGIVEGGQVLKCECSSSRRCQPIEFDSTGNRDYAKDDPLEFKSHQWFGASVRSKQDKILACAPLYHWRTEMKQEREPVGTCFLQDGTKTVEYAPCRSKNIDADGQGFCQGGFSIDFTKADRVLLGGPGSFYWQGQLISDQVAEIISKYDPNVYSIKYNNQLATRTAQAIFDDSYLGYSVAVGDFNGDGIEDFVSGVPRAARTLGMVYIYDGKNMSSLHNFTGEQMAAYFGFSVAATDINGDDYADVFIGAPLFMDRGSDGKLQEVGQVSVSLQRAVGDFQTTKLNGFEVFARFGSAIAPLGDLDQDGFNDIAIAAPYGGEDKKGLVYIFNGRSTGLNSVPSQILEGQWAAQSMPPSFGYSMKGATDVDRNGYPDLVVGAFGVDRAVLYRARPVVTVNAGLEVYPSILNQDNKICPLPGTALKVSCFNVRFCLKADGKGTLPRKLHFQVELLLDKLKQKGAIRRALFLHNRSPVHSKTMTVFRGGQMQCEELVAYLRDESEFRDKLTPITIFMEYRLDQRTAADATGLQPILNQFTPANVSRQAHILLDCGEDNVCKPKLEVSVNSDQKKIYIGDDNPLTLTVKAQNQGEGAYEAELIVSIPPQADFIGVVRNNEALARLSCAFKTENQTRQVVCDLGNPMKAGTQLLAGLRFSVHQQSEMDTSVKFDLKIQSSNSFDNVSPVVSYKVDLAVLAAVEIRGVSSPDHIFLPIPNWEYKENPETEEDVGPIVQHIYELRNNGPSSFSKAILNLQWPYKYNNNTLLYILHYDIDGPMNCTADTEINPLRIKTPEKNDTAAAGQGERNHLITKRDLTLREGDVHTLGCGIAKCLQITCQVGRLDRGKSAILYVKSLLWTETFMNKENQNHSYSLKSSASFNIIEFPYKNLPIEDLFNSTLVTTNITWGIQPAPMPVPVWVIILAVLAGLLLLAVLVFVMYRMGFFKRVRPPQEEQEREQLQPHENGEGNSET
Chain of human αV on parental A375M cells (αVβ3 and αVβ5 integrins) (P06756 31-1048 A375M, form in doubt): as the sequence (P06756 31-1048, chain 1 of 2) above, with A345M counted along it

% Inhibition of K562 adhesion to fibronectin [1] [%]	Percent Inhibition of J6.77 adhesion to CS-1 peptide, 5 ug/ml [2] [%]	% Cells Shifted [3] [%]	GeoMean [3]	percent of cells shifted [4] [%]	percent of cells shifted [5] [%]	percent of cells shifted [6] [%]	Percent Inhibition of K562 adhesion to FN9-10, 5 ug/ml [7] [%]	Percent Inhibition of A375M adhesion to osteopontin peptide, 5 ug/ml [8] [%]	Percent Inhibition of J6.77 adhesion to CS-1 peptide, 5 ug/ml [9] [%]	Percent Internalization, 1 ug/mL [10] [%]	Percent Internalization, 10 ug/mL [10] [%]	percent of cells shifted [11] [%]	Estimated IC50, adhesion assay, n = 1 [12] [µg/mL]	Estimated IC50, adhesion assay, n = 2 [12] [µg/mL]	Estimated IC50, adhesion assay, n = 3 [12] [µg/mL]	FMAT FL1XCount [13]	Assay 1 % Inhibition of adhesion [14] [%]	Assay 2 % Inhibition of adhesion [14] [%]	Average % Inhibition of adhesion [14] [%]	Binder
3	-30	55	66.4	70	54	71	-4	3	-8											B1
							2	9	-7	26	28	45	0.029	0.025	0.033	218000	98	102	100	B2

Source: patent US20160319032A1 (MEDLMMUNE, published 2016)
